Measured values published in US12636342B2, “TARS derived from Akkermansia muciniphila or fragment thereof, and use thereof” (KOREA RESEARCH INSTITUTE OF BIOSCIENCE AND BIOTECHNOLOGY, priority 2020, dated 2026).

How the values were obtained:
THP1 cells = test: Immunoblotting of AmTARS/TLR2-induced signaling molecules in THP1 cells; format: cell-based, human
Procedure: (A and B) Analysis of key molecules that inhibit the MAPK and PI3K/AKT signaling pathways. IL-10 produced by BMDMs pre-treated with inhibitors of ERK (PD98059, […]), p38 (SB203580, […]), MSK1/2 (SB747651A, 10 μM), CREB (666-15, 1 μM), PI3K (Wortmannin, 10 μM), and AKT1/2 (AKT1/2, 10 μM) for 1 h before treatment with either PBS or AmTARS for 24 h (n=6 per group) (A). Flow cytometry analysis of M2 macrophages in BMDMs pre-treated for 1 h with the indicated kinase inhibitors, before treatment with either PBS or AmTARS for 24 h (n=3 per group) (B). (C and D) Western blot analysis of MAPK signaling molecules in lysates of BMDMs (C) or THP1 cells (D) treated for different times with 0.5 μM AmTARS. (E) Western blot analysis of lysates of BMDMs pre-treated with α-IgG (Isotype, 1 μg ml-1) or α-TLR2 (1 μg ml-1) for 1 h before treatment with PBS, AmTARS (0.5 μM), or Pam3 (0.5 μM) for 30 min. (F and G) Western blot analysis of PI3K/AKT signaling molecules in lysates of BMDMs (F) or THP1 cells (G) treated with 0.5 μM AmTARS. (H) AmTARS activates both TLR2/1- and TLR2/6-mediated signaling. Activation of AKT, ERK, and CREB was measured by western blot analysis of lysates of THP1 cells pre-treated with α-IgG, α-TLR1, α-TLR2, or α-TLR6 (1 μg ml-1) for 1 h before treatment for 30 min with PBS or AmTARS (0.5 µM). Data shown in (A and B) are representative of three independent experiments, each with similar results (mean±SEM). P-values were calculated using an unpaired two-tailed Student's t-test. Data shown in (C-H) are representative and repeated at least three times.
Subsequently, we conducted immunoblotting assays to measure the time-dependent activation of AmTARS/TLR2-induced signaling molecules in both BMDMs and THP1 cells. AmTARS rapidly activated ERK, p38, and MSK1/2 within 15 min and, subsequently, phosphorylation of CREB at Ser133 (which is essential for IL-10 production) within 30 min in BMDMs (FIG. 31C) and THP1 cells (FIG. 31D). We then compared AmTARS-triggered TLR2 signaling with typical ligand-triggered signaling using Pam3CSK4 (the synthetic canonical TLR2/1 agonist, referred to hereafter as Pam3) in BMDMs stimulated for 30 min. […] By contrast, activation of NF-κB was greater in Pam3-treated BMDMs than in AmTARS-treated BMDMs (FIG. 31E).

[1] = tested on: peritoneal macrophages from TLR2-KO mice; test: M2 macrophage polarization in TLR2-KO mice under non-inflammatory conditions; format: in vivo, mouse; settings: 24 h
Procedure: (A and B) AmTARS interacts directly with TLR2. Pull-down assay using lysates of HEK 293T cells transfected with Strep-AmTARS and TLR2-FLAG (A). The proteins precipitated by an anti-Strep antibody were analyzed by western blotting. In vitro interaction assay using purified TLR2-FLAG and His-tagged AmTARS proteins (B). Purified TLR2-FLAG was mixed with purified His-tagged AmTARS protein. His-tagged protein was precipitated by Ni-NTA, eluted, and analyzed by SDS-PAGE. (C) TLR2-dependent anti-inflammatory function of AmTARS in BMDMs (n=6 per group). (D) The unique regions within AmTARS are essential for anti-inflammatory function in a TLR2-dependent manner (n=8 per wild-type group and n=6 per TLR2 KO group). BMDMs from WT or TLR2-KO mice were treated with the indicated proteins (C and D). (E-I) TLR2-dependent function of AmTARS in vivo. WT or TLR2-KO mice with DSS-induced colitis were injected with either PBS or AmTARS. Daily changes in disease activity scores (E). Intestinal epithelial damage, as analyzed by H&E staining (F), and damage scores (G) (n=3 per group). […] After 24 h, PECs were isolated, and the percentage of M2 macrophages (CD206+CD11b+F4/80+) was measured by flow cytometry. […] P-values were calculated by an unpaired two-tailed Student's t-test.

B1: Akkermansia muciniphila-derived threonyl-tRNA synthetase (TARS) (protein)
chain: MSEHKERKTLEERQQMSDLERLRHSCAHVLATAICRLWPDAQLAGGPAVDNGFYYDVELDHRISTEDFERIEEEMKKVVKENQVFQKEVISRADAMKMAESGELGALGPRSEPSRFKIDLLNDIPEDEEISLYRNGDFTDLCAGPHVGRTGNCKAFKIMSVASAFYKGDKNRPMLQRIYGTCFPNRTQLDEHLERLEEARRRDHRKLGRELGLFCIDESVGQGLILWKPKGALIRRSLQDFITEELDKLGYSQVYTPNIGKLDLYRTSGHFPYYQESQYAPIPERDAMEKLSQEGASCAELFNGLATGTIEGYMLKPMNCPHHIKIYANDAHSYRDLPVRLAEFGTVYRWEQSGELGGMTRVRGFTQDDAHIFCTPDQLAGEIRQCLGIVKTIFGTLGMTDYRVRLSMRDPESDKYVGSPENWDKAEQALREAAEWLGADYSEEAGEAAFYGPKIDFIVRDAIGREWQLGTVQVDYNLPERFDLHYTGADNKPHRPVMVHRAPFGSMERFTGLLIEHFEGKFPTWLSPEQVRVLPISDKVTDVAAAHRTALAARGVRVTVDETPDKIGAKIRNARLDRVPYMLVLGQREAEDGTVSVRHRDKGDLGAMPFEQFADLVAREIAERHISPVI
modifications: Akkermansia muciniphila TARS
- time to activation of AKT (THP1 cells; 0.5 μM AmTARS): ≤ 15 min
- time to activation of ERK (THP1 cells; 0.5 μM AmTARS): ≤ 15 min
- time to activation of MSK1/2 (THP1 cells; 0.5 μM AmTARS): ≤ 15 min
- time to activation of PI3K (THP1 cells; 0.5 μM AmTARS): ≤ 15 min
- time to activation of p38 (THP1 cells; 0.5 μM AmTARS): ≤ 15 min
- time to inhibition of GSK3β activity (phosphorylation at Ser9) (THP1 cells; 0.5 μM AmTARS): ≤ 15 min
- time to phosphorylation of CREB at Ser133 (THP1 cells; 0.5 μM AmTARS): ≤ 30 min
- AmTARS-induced TLR2 signaling (AKT, ERK, CREB) after antibody pre-treatment (THP1 cells; α-TLR1, α-TLR2 or α-TLR6 1 μg ml-1 1 h, then AmTARS 0.5 μM 30 min): shut down by antibodies targeting TLR1, TLR6, and TLR2
- M2 macrophage polarization of peritoneal macrophages ([1]; TLR2-KO mice, non-inflammatory conditions): did not cause M2 macrophage polarization
- M2 macrophages in PECs isolated from TLR2-KO mice (FIG. 28K) ([1]; TLR2-KO): no M2 macrophages were observed
